Experimental data as given in patent US20220016205A1, “METHODS OF OVERCOMING RESISTANCE TO IMMUNE CHECKPOINT INHIBITORS” (Board of Regents, The University of Texas System, priority 2018, published 2022).

Legend:
[1] = tested on: RAW 264.7 cells; experiment: Immunofluorescence of p38a and SMAD1/5/9 phosphorylation in RAW 264.7 cells treated with BMP7 or BMP7 plus follistatin; format: cell-based, murine; conditions: 24 hours (FIG. 2K)
Experimental: Immunofluorescence analysis. RAW 264.7 cells were counted with a hemocytometer (0.4% Trypan blue solution), diluted to 200,000, and seeded in 4-well culture slides (Lab-Tek, Catalog #154917), and allowed to attach overnight. Cells were treated with 250 ng BMP7 (R&D Systems, Catalog #5666-BP-010) or follistatin (R&D Systems, Catalog #769-FS-025) and incubated for 24 h, and then fixed with 1% paraformaldehyde for 10 minutes, followed by a 10-minute wash in 70% ethanol at room temperature. Cells were then treated with 0.1% NP40 in PBS for 20 minutes, washed in PBS four times, and then blocked with 5% bovine serum albumin in PBS for 30 minutes. Cells were then incubated with p38a MAPK (L53F8) (Cell Signaling, Catalog #9228) and Phospho-Smad1 (Ser463/465), Smad5 (Ser463/465), and Smad9 (Ser465/467) (D5B10) (Cell Signaling, Catalog #13820) in 5% bovine serum albumin in PBS overnight according to the manufacturer's protocol. […] Slides were examined with a fluorescence microscope (Leica, Buffalo Grove, Ill.), and images were captured by a charge-coupled device camera and imported into the Advanced Spot Image analysis software package.

[2] = tested on: RAW 264.7 cells; experiment: qPCR in RAW 264.7 cells co-cultured with 344SQR cells (transwell) with follistatin or K02288; format: cell-based, murine; conditions: 344SQR co-culture plus follistatin versus 344SQR co-culture only, 24 or 48 hours (FIG. 3I)
Text: (§1) Quantitative polymerase chain reaction (qPCR). Total RNA was isolated from cells and tumors with Triazol (Life Technologies) according to the manufacturer's protocol. For studies of BMP7, p38α, IL-1α, IL-1β, TNF-α, RANTES, IL-2, and IFN-γ expression, mRNA was retrotranscribed with the iScript™ gDNA Clear cDNA Synthesis Kit (BioRad) and analyzed by qPCR using SYBR Green (Life Technologies) with specific primers according to the manufacturer's protocol. The comparative Ct method was used to calculate the relative abundance of mRNAs compared with ACTB (beta-actin) expression for cancer cells or CD45 expression for immune cells.
Co-culture experiments and treatments. Viable cells were counted with a hemocytometer (0.4% Trypan blue solution) and diluted to 40,000 cells per well in 24-wells plates. Cells from 344SQP, 344SQR, 344SQ ctrl, or 344SQ-shBMP7 tumors were seeded at the top inserts (24-mm Transwell with 0.4-μm pore polycarbonate membrane insert, Sigma-Aldrich), and RAW 264.7 or CD4^+ T cells were seeded at the bottom of the transwell system. […] RNA was then isolated from RAW 264.7 or CD4^+ T cells and analyzed for p38α, IL-1α, IL-1β, TNF-α, RANTES, IL-2 and IFN-γ expression with qPCR. […]

[3] = tested on: CD4^+ T cells; experiment: qPCR of p38α, IFN-γ, IL-2 in CD4+ T cells co-cultured with 344SQR cells plus follistatin; format: cell-based, mouse; conditions: 344SQR co-culture plus follistatin versus 344SQR without follistatin, 24 hours (FIG. 4G)
Text: as §1
Co-culture experiments and treatments. Viable cells were counted with a hemocytometer (0.4% Trypan blue solution) and diluted to 40,000 cells per well in 24-wells plates. […] RNA was then isolated from RAW 264.7 or CD4^+ T cells and analyzed for p38α, IL-1α, IL-1β, TNF-α, RANTES, IL-2 and IFN-γ expression with qPCR.
Next, CD4^+ T cells were co-cultured with 344SQP or 344SQR cells, and 344SQR ctrl or 344SQR shBMP7 cells, and the expression of p38α, IFN-γ, and IL-2 analyzed. […] To confirm that these findings depended on BMP7 and not on some other secreted molecule, CD4^+ T cells were treated with BMP7 with or without follistatin and p38α, IFN-γ, and IL-2 expression evaluated. […]

B1: follistatin: BMP7 antagonist protein, natural inhibitor of BMP7 (R&D Systems, Catalog #769-FS-025) (protein, UniProt P19883 30-344, looked up)
Follistatin: GNCWLRQAKNGRCQVLYKTELSKEECCSTGRLSTSWTEEDVNDNTLFKWMIFNGGAPNCIPCKETCENVDCGPGKKCRMNKKNKPRCVCAPDCSNITWKGPVCGLDGKTYRNECALLKARCKEQPELEVQYQGRCKKTCRDVFCPGSSTCVVDQTNNAYCVTCNRICPEPASSEQYLCGNDGVTYSSACHLRKATCLLGRSIGLAYEGKCIKAKSCEDIQCTGGKKCLWDFKVGRGRCSLCDELCPDSKSDEPVCASDNATYASECAMKEAACSSGVLLEVKHSGSCNSISEDTEEEEEDEDQDYSFPISSILEW
p38a expression ([1]; BMP7 plus follistatin compared with BMP7 alone): higher | SMAD1/5/9 activation ([1]; BMP7 plus follistatin versus BMP7 alone): lower | expression of p38a and p38α-regulated cytokines and chemokines [2]: higher expression | expression of p38α, IFN-γ, and IL-2 [3]: higher expression
